Series [1] can be described thus: Dissociation constant of RNA-fluorophore complex, titration with DFHO. It counts as binding. The settings on record: 50 nM RNA, one-site saturation model. An excerpt: FIG. 2A is a schematic showing the secondary structure of Squash as predicted by mFOLD (Squash: 5′-GGCUACAAGGUGAGCCCAAUAAUACGGUUUGGGUUAGGAUAGGAAGUAGAGCCGUAAACUCUCUAAGCGGUAGUC-3′ (SEQ ID NO:1)). Squash retained the main structural elements of add A-riboswitch aptamer including a 3-way junction and predicted kissing loop interactions (residues at positions 30, 31, 56, and 57, solid gray line). An additional base pair in the kissing loop between loop L2 and L3 (residues at positions 29 and 58, dotted gray line) improved fluorescence activation. […] Shown are the excitation (Ex) and emission (Em) spectra of Squash bound to DFHBI-1T and DFHO (structures shown in inset). Spectra were measured using 20 μM RNA and 2 μM of the indicated fluorogenic dye. […] Fluorescence activation was measured by incubating 200 nM dye and 10 μM RNA. By using a large excess of RNA compared to the fluorophore, it was ensured that the fluorescence observed is from 200 nM RNA-fluorophore complex. Data represent mean values±s.d. for n=3 independent experiments. The values inside the bars indicate fold activation. AU, arbitrary units. […] FIG. 2E is a bar graph showing the results of an experiment in which Squash-DFHO fluorescence was measured in buffers containing exclusively the indicated cations. […]

Series [2] can be described thus: Photophysical properties of fluorophores and RNA-fluorophore complexes (Squash study). The series is classed as physicochemical. An outline of the steps: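 Gel-purified RNAs in 40 mM HEPES-KOH pH 7.4, 100 mM KCl, 0.5 mM MgCl2, with RNA in excess over fluorophore for absorption, excitation and emission spectra. Quantum yields used 10 μM RNA and 0.2 μM fluorophore, from integrated emission versus Broccoli-DFHBI-1T or Corn-DFHO.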

A further series can be described thus: In vitro folding of RNAs. It counts as physicochemical. The settings on record: 40 mM HEPES-KOH (pH 7.4), 100 mM KCl, 0.5 mM MgCl2. The protocol: Briefly, the fluorescence intensities of two solutions were compared: one having excess fluorophore and limiting RNA, and the other with excess RNA and limiting fluorophore. This allows calculation of the percent of the aptamer that is folded. For these experiments, 0.2 μM of fluorophore (or RNA) and 10 μM of RNA (or fluorophore) was used. The signal from the limiting RNA condition was divided by the signal from the limiting fluorophore condition to determine the fraction folded.
To prepare this complex, 10 μM Squash is incubated with 0.2 μM DFHO. By having large excess of Squash, there is likely to be enough folded Squash to form 0.2 μM Squash-DFHO complex. Next, 0.2 μM Squash is incubated with excess (10 μM) DFHO.

Broadly, the Kd is the equilibrium constant for the complex coming apart.

B1: Squash: fluorogenic RNA aptamer evolved from the add A-riboswitch aptamer, binds DFHBI-1T and DFHO; SEQ ID NO: 12 (SEQ ID NO: 1) (nucleic acid)
chain: AGGUGAGCCCAAUAAUACGGUUUGGGUUAGGAUAGGAAGUAGAGCCGUAAACUCUCUAAGCG
modifications: RNA, backbone not given here
As to B1, in series [1], the Kd was determined as 54 nM. In series [2], the “Quantum yield with DFHBI-1T” value was 0.71 and the “Quantum yield with DFHO” value is 0.60. The “Emission maxima with DFHO” value in series [2] (10 μM RNA, 1 μM DFHO) amounted to 562 nm. Further, the “Abs max in complex with DFHBI-1T” value in series [2] (50 μM RNA, 5 μM DFHBI-1T) was 450 nm. Moreover, the “% folded in vitro” value in the series “In vitro folding of RNAs” is “approximately 80%”.

The record behind these values is patent US20250043290A1, “RNA SEQUENCES THAT INDUCE FLUORESCENCE OF SMALL MOLECULE FLUOROPHORES, MOLECULAR COMPLEXES, SENSORS, AND METHODS OF USE THEREOF” (CORNELL UNIVERSITY, priority 2021, published 2025).
